Assay results from the nanobody polyreactivity screen of Harvey et al. (2022).

Experiment: yeast display, Sf9 membrane polyspecificity reagent, FACS + sequencing; frameworks hold sequencing errors
Summary of the method: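 Synthetic nanobody libraries on Saccharomyces cerevisiae BJ5465 were galactose-induced for 36–48 hours, stained 1 hour at 4 °C with 10% biotinylated, detergent-solubilized Sf9 membrane reagent and enriched on streptavidin microbeads. FACS then separated cells into low and high (top ~1%) gates by anti-HA (expression) and streptavidin (reagent binding) fluorescence. Genes were colony-PCR amplified, MiSeq 2 × 250 sequenced and CDR-length filtered. A clone's polyreactivity label is that of its gate of origin.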

| Sequence | polyreactivity (PSR sort gate) |
| --- | --- |
| QVQLVESGGGLVQAGGSLRLSCAASGRTFSKYTMGWYRQAPGKERELVAAIDRSGGSTYYADSVKGRFSISRDNAKNTVYLQMNSLKPEDTAVYYCNTGLRYYSYRRDYWGQGTQVTVSS | high polyreactivity |
| QVQLVESGGGLVQAGGSLRLSCAASGRTFSLDAMGWYRQAPWKERELVASITDSTGGSTYYADSVKGRFTISRDNAKNTVYLQMNSLKPEDTAVYYCAAQDSQYSDYQWWFGYWGQGTQVTVSS | low polyreactivity |
| QVQLVESGGGLVQAGGSLRLSCAASGRTFSLNAMGWYRQAPGKEREFVAAISSTGGSTYYADSVKGRFTISRDNAKNTVYLQMNSLKPEDTAVYYCAKRSVYRTALGRYSVAYDYWGQGTQVTVSS | high polyreactivity |
| QVQLVESGGGLVQAGGSLRLSCAASGRTFSLYDMGWYRQAPGKERELVAAISYSGTRTYYADSVKGRFTISRDNAKNTVYLQMNCLKPEDTAVYYCARVYTVGTGRSWRLDYWGQGTQVTVSS | high polyreactivity |
| QVQLVESGGGLVQAGGSLRLSCAASGRTFSPNAMGWYRQAPGKEREFVAAITWSGGGTFYADSVKGRFTISRDNAKNTVYLQMNSLKPEDTAVYYCAARLDTYQTHSVITPAALYYWGQGTQVTVSS | low polyreactivity |
| QVQLVESGGGLVQAGGSLRLSCAASGRTFSPYAMGWYRQAPGKERELVAAIYNGGSTYYADSVKGRFTISRDNAKNTVYLQMNSLKPEDTAVYYCAAGRKSLYRIYSEYVEFDYWGQGTQVTVSS | low polyreactivity |
| QVQLVESGGGLVQAGGSLRLSCAASGRTFSQYAMGWYRQAPGKERELVAPISWSGGSTYYADSVKGRFTISRDNAKNTVDLQMNSLKPEDTAVFYCAAVGKGSSRSSYPVLYDYWGQGTQVTVSS | low polyreactivity |
| QVQLVESGGGLVQAGGSLRLSCAASGRTFSRNAMGWYRHAPGKEWELVAAISRTGGSTYYADSVKGRFTISRDNAKKTVYLQMNSLKPEDTAVYYCAAGTWGWYAYGYWGLGTQVTVSS | high polyreactivity |
| QVQLVESGGGLVQAGGSLRLSCAASGRTFSRNAMGWYRQAPGKERELVAAISDGGGSTYYADSVKGRFTISRDNAKNPVYLQMNILKPEDTAVYYCAARVLDWRGDIHDSEYWGHGTQVTVSS | low polyreactivity |
| QVQLVESGGGLVQAGGSLRLSCAASGRTFSRNAMGWYRQAPGKERELVAAISQRGVSTYYADSVKGRFTISRDNAKNTVYLQMNSLKPEDTAVYYCNTRGTYRYDYWGQGTQVTVSS | low polyreactivity |
| QVQLVESGGGLVQAGGSLRLSCAASGRTFSRNAMGWYRQAPGKERELVAAISQSGGRTYYADSVKGRFTISRDNAKNTVYLQMNSLKPEDTAVYYCAAAGTRKALTEYDYWGQGTQVTLSS | high polyreactivity |
| QVQLVESGGGLVQAGGSLRLSCAASGRTFSRYAMGWYRPAPGKERELVAAISSSGGSTYYADSVKGRFTISRDHAKNTVYLQMNSLKPEDTAVYYCAKYFIRDNRYDYWGQGTQVTVSS | high polyreactivity |
| QVQLVESGGGLVQAGGSLRLSCAASGRTFSRYAMGWYRQAPGKERELVASIRSGGSTNYADSVKGRFTISRDNAKNTVYIQMNSLKPEDTAVYYCANVGRYWNPVYNSFYNFDYWGQGTQVTVSS | high polyreactivity |
| QVQLVESGGGLVQAGGSLRLSCAASGRTFSRYVMGWYRQAPGKERELVAAISRTGGRTYYADSVKGRFTISRDNAKNTVYLQMNSLKPEDTAVYYCNAGTVLISTYDYWGQGTQVSVSS | high polyreactivity |
| QVQLVESGGGLVQAGGSLRLSCAASGRTFSRYVMGWYRQAPGKERELVAGISQSGARTTYADSVKGRFTISRDNAKNTVYLQMNSLKPEDTAVYYCAAVGYGIRSYYSYDYWGQGTQVTVSS | high polyreactivity |
| QVQLVESGGGLVQAGGSLRLSCAASGRTFSSYAMGWYRPAPGKERELVAAITKRAGNTYYADSVKGRFTISRDNAKNTVYLQMNSLKPEDTAVYYCAAGWERFRNYNYWGQGTQVTVSS | high polyreactivity |
| QVQLVESGGGLVQAGGSLRLSCAASGRTFSSYAMGWYRQAPGKEREFVAAINKNGGSTFYADSVKGRFTISRDNAKNTVYFQMNSLKPEDTAVYYCNADTDWWNPYNYWGQGTQVTVST | low polyreactivity |
